Measurements reported in patent publication US20140206607A1 (INDIANA UNIVERSITY RESEARCH AND TECHNOLOGY, published 2014).
Numbered stars: 1 amine (or outer) side, 2 acyl side, 3 side chain; on linkers, the order of the positions; unused ones are H or OH. Square brackets hold non-standard residues; d marks the D form. Side chains are listed from the residue outwards. Ends that are not written are not given here. * marks the point of attachment. γGlu = O=C(O)[C@H](CCC(=O)[*:2])N[*:1]; Palmitoyl = CCCCCCCCCCCCCCCC(=O)*; Orn = NCCC[C@H](N)C(=O)O; Aib = CC(C)(N)C(=O)O

T1: GIP receptor (UniProt P48546 22-466)
T1 sequence (looked up): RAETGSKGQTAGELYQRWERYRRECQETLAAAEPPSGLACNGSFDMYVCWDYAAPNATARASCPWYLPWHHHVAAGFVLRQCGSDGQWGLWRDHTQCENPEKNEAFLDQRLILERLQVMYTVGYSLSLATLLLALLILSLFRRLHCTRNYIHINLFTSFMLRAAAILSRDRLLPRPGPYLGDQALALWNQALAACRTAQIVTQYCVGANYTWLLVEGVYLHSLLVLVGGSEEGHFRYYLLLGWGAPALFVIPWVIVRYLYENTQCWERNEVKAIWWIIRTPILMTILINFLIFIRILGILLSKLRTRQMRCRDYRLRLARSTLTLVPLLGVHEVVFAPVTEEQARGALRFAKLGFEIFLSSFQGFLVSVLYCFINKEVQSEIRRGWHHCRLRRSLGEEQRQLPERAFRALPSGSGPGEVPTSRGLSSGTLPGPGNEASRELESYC


Columns and labels:
Test in all cases: cell-based or functional assay
glucagon receptor = glucagon receptor (UniProt P47871 26-477, limits assumed)
GLP-1 receptor = GLP-1 receptor (UniProt P43220 24-463, limits assumed)
GIP receptor = biological target: T1, GIP receptor

Sequence of glucagon receptor (P47871 26-477 limits assumed): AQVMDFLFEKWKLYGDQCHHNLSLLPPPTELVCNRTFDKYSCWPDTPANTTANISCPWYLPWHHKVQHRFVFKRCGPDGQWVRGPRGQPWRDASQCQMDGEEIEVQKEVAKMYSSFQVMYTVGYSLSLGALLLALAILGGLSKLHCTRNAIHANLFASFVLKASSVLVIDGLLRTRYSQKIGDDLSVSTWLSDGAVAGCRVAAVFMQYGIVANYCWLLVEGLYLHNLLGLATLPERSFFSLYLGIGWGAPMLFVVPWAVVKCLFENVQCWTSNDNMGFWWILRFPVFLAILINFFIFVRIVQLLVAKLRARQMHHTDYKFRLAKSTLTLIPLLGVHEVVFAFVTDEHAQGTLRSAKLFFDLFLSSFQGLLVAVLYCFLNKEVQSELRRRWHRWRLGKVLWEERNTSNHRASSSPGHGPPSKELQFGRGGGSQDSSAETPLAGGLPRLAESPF

Row | Binder | EC50 (nM) at glucagon receptor (glucagon receptor) [nM] | EC50 (nM) at GLP-1 receptor (GLP-1 receptor) [nM] | EC50 (nM) at GIP receptor (GIP receptor) [nM]
1 | H[Aib]QGTFTSDK([γGlu-γGlu-Palmitoyl])SKYLD[Aib]RAAQDFVQWLMDTK[dA]-OH (N-terminus assumed; SMILES CCCCCCCCCCCCCCCC(=O)N[C@@H](CCC(=O)N[C@@H](CCC(=O)NCCCC[C@H](NC(=O)[C@H](CC(=O)O)NC(=O)[C@H](CO)NC(=O)[C@@H](NC(=O)[C@H](Cc1ccccc1)NC(=O)[C@@H](NC(=O)CNC(=O)[C@H](CCC(N)=O)NC(=O)C(C)(C)NC(=O)[C@@H](N)Cc1c[nH]cn1)[C@@H](C)O)[C@@H](C)O)C(=O)N[C@@H](CO)C(=O)N[C@@H](CCCCN)C(=O)N[C@@H](Cc1ccc(O)cc1)C(=O)N[C@@H](CC(C)C)C(=O)N[C@@H](CC(=O)O)C(=O)NC(C)(C)C(=O)N[C@@H](CCCNC(=N)N)C(=O)N[C@@H](C)C(=O)N[C@@H](C)C(=O)N[C@@H](CCC(N)=O)C(=O)N[C@@H](CC(=O)O)C(=O)N[C@@H](Cc1ccccc1)C(=O)N[C@H](C(=O)N[C@@H](CCC(N)=O)C(=O)N[C@@H](Cc1c[nH]c2ccccc12)C(=O)N[C@@H](CC(C)C)C(=O)N[C@@H](CCSC)C(=O)N[C@@H](CC(=O)O)C(=O)N[C@H](C(=O)N[C@@H](CCCCN)C(=O)N[C@H](C)C(=O)O)[C@@H](C)O)C(C)C)C(=O)O)C(=O)O) [peptide of SEQ ID NO: 32] | 0.007 | 0.008 | 2.08
2 | H[Aib]QGTFTSDK([γGlu-Palmitoyl])SKYLD[Aib]RAAQDFVQWLLDGRG-NH2 (N-terminus assumed; SMILES CCCCCCCCCCCCCCCC(=O)N[C@@H](CCC(=O)NCCCC[C@H](NC(=O)[C@H](CC(=O)O)NC(=O)[C@H](CO)NC(=O)[C@@H](NC(=O)[C@H](Cc1ccccc1)NC(=O)[C@@H](NC(=O)CNC(=O)[C@H](CCC(N)=O)NC(=O)C(C)(C)NC(=O)[C@@H](N)Cc1c[nH]cn1)[C@@H](C)O)[C@@H](C)O)C(=O)N[C@@H](CO)C(=O)N[C@@H](CCCCN)C(=O)N[C@@H](Cc1ccc(O)cc1)C(=O)N[C@@H](CC(C)C)C(=O)N[C@@H](CC(=O)O)C(=O)NC(C)(C)C(=O)N[C@@H](CCCNC(=N)N)C(=O)N[C@@H](C)C(=O)N[C@@H](C)C(=O)N[C@@H](CCC(N)=O)C(=O)N[C@@H](CC(=O)O)C(=O)N[C@@H](Cc1ccccc1)C(=O)N[C@H](C(=O)N[C@@H](CCC(N)=O)C(=O)N[C@@H](Cc1c[nH]c2ccccc12)C(=O)N[C@@H](CC(C)C)C(=O)N[C@@H](CC(C)C)C(=O)N[C@@H](CC(=O)O)C(=O)NCC(=O)N[C@@H](CCCNC(=N)N)C(=O)NCC(N)=O)C(C)C)C(=O)O) [peptide of SEQ ID NO: 30] | 0.933 | 0.0082 | 9.06
3 | H[Aib]QGTFTSDK([γGlu-γGlu-Palmitoyl])SKYLD[Aib]RAAQDFVQWLM[Orn]T[Orn]E-OH (N-terminus assumed; SMILES CCCCCCCCCCCCCCCC(=O)N[C@@H](CCC(=O)N[C@@H](CCC(=O)NCCCC[C@H](NC(=O)[C@H](CC(=O)O)NC(=O)[C@H](CO)NC(=O)[C@@H](NC(=O)[C@H](Cc1ccccc1)NC(=O)[C@@H](NC(=O)CNC(=O)[C@H](CCC(N)=O)NC(=O)C(C)(C)NC(=O)[C@@H](N)Cc1c[nH]cn1)[C@@H](C)O)[C@@H](C)O)C(=O)N[C@@H](CO)C(=O)N[C@@H](CCCCN)C(=O)N[C@@H](Cc1ccc(O)cc1)C(=O)N[C@@H](CC(C)C)C(=O)N[C@@H](CC(=O)O)C(=O)NC(C)(C)C(=O)N[C@@H](CCCNC(=N)N)C(=O)N[C@@H](C)C(=O)N[C@@H](C)C(=O)N[C@@H](CCC(N)=O)C(=O)N[C@@H](CC(=O)O)C(=O)N[C@@H](Cc1ccccc1)C(=O)N[C@H](C(=O)N[C@@H](CCC(N)=O)C(=O)N[C@@H](Cc1c[nH]c2ccccc12)C(=O)N[C@@H](CC(C)C)C(=O)N[C@@H](CCSC)C(=O)N[C@@H](CCCN)C(=O)N[C@H](C(=O)N[C@@H](CCCN)C(=O)N[C@@H](CCC(=O)O)C(=O)O)[C@@H](C)O)C(C)C)C(=O)O)C(=O)O) [peptide of SEQ ID NO: 33] | 0.023 | 0.019 | 3.96
4 | H[Aib]QGTFTSDK([γGlu-γGlu-Palmitoyl])SKYLD[Aib]RAAQDFVQWLL[Aib]GRG-NH2 (N-terminus assumed; SMILES CCCCCCCCCCCCCCCC(=O)N[C@@H](CCC(=O)N[C@@H](CCC(=O)NCCCC[C@H](NC(=O)[C@H](CC(=O)O)NC(=O)[C@H](CO)NC(=O)[C@@H](NC(=O)[C@H](Cc1ccccc1)NC(=O)[C@@H](NC(=O)CNC(=O)[C@H](CCC(N)=O)NC(=O)C(C)(C)NC(=O)[C@@H](N)Cc1c[nH]cn1)[C@@H](C)O)[C@@H](C)O)C(=O)N[C@@H](CO)C(=O)N[C@@H](CCCCN)C(=O)N[C@@H](Cc1ccc(O)cc1)C(=O)N[C@@H](CC(C)C)C(=O)N[C@@H](CC(=O)O)C(=O)NC(C)(C)C(=O)N[C@@H](CCCNC(=N)N)C(=O)N[C@@H](C)C(=O)N[C@@H](C)C(=O)N[C@@H](CCC(N)=O)C(=O)N[C@@H](CC(=O)O)C(=O)N[C@@H](Cc1ccccc1)C(=O)N[C@H](C(=O)N[C@@H](CCC(N)=O)C(=O)N[C@@H](Cc1c[nH]c2ccccc12)C(=O)N[C@@H](CC(C)C)C(=O)N[C@@H](CC(C)C)C(=O)NC(C)(C)C(=O)NCC(=O)N[C@@H](CCCNC(=N)N)C(=O)NCC(N)=O)C(C)C)C(=O)O)C(=O)O) [peptide of SEQ ID NO: 29] | 0.014 | 0.007 | 1.65
5 | H[Aib]QGTFTSDYSKYLDERRA[Aib]EFVC(40K‑TE PEG)WLLDGGPSSGAPPPS-NH2 [peptide of SEQ ID NO: 35] | 1.18 | 0.085 | 16.1
6 | H[dS]QGTFTSDK([γGlu-Palmitoyl])SKYLDERAAQDFVQWLLDGRK-NH2 (N-terminus assumed; SMILES CCCCCCCCCCCCCCCC(=O)N[C@@H](CCC(=O)NCCCC[C@H](NC(=O)[C@H](CC(=O)O)NC(=O)[C@H](CO)NC(=O)[C@@H](NC(=O)[C@H](Cc1ccccc1)NC(=O)[C@@H](NC(=O)CNC(=O)[C@H](CCC(N)=O)NC(=O)[C@@H](CO)NC(=O)[C@@H](N)Cc1c[nH]cn1)[C@@H](C)O)[C@@H](C)O)C(=O)N[C@@H](CO)C(=O)N[C@@H](CCCCN)C(=O)N[C@@H](Cc1ccc(O)cc1)C(=O)N[C@@H](CC(C)C)C(=O)N[C@@H](CC(=O)O)C(=O)N[C@@H](CCC(=O)O)C(=O)N[C@@H](CCCNC(=N)N)C(=O)N[C@@H](C)C(=O)N[C@@H](C)C(=O)N[C@@H](CCC(N)=O)C(=O)N[C@@H](CC(=O)O)C(=O)N[C@@H](Cc1ccccc1)C(=O)N[C@H](C(=O)N[C@@H](CCC(N)=O)C(=O)N[C@@H](Cc1c[nH]c2ccccc12)C(=O)N[C@@H](CC(C)C)C(=O)N[C@@H](CC(C)C)C(=O)N[C@@H](CC(=O)O)C(=O)NCC(=O)N[C@@H](CCCNC(=N)N)C(=O)N[C@@H](CCCCN)C(N)=O)C(C)C)C(=O)O) [peptide of SEQ ID NO: 28] | 0.015 | 0.003 | 2.84
7 | H[Aib]QGTFTSDK([γGlu-γGlu-Palmitoyl])SKYLD[Aib]RAAQDFVQWLMKGRG-OH (N-terminus assumed; SMILES CCCCCCCCCCCCCCCC(=O)N[C@@H](CCC(=O)N[C@@H](CCC(=O)NCCCC[C@H](NC(=O)[C@H](CC(=O)O)NC(=O)[C@H](CO)NC(=O)[C@@H](NC(=O)[C@H](Cc1ccccc1)NC(=O)[C@@H](NC(=O)CNC(=O)[C@H](CCC(N)=O)NC(=O)C(C)(C)NC(=O)[C@@H](N)Cc1c[nH]cn1)[C@@H](C)O)[C@@H](C)O)C(=O)N[C@@H](CO)C(=O)N[C@@H](CCCCN)C(=O)N[C@@H](Cc1ccc(O)cc1)C(=O)N[C@@H](CC(C)C)C(=O)N[C@@H](CC(=O)O)C(=O)NC(C)(C)C(=O)N[C@@H](CCCNC(=N)N)C(=O)N[C@@H](C)C(=O)N[C@@H](C)C(=O)N[C@@H](CCC(N)=O)C(=O)N[C@@H](CC(=O)O)C(=O)N[C@@H](Cc1ccccc1)C(=O)N[C@H](C(=O)N[C@@H](CCC(N)=O)C(=O)N[C@@H](Cc1c[nH]c2ccccc12)C(=O)N[C@@H](CC(C)C)C(=O)N[C@@H](CCSC)C(=O)N[C@@H](CCCCN)C(=O)NCC(=O)N[C@@H](CCCNC(=N)N)C(=O)NCC(=O)O)C(C)C)C(=O)O)C(=O)O) [peptide of SEQ ID NO: 31] | 0.016 | 0.007 | 2.34
